Where no end group is shown, it is not given here.
T1: pS2 CTD diheptapeptide (also: pS2: Ser2 phosphorylated, which heptad repeat(s) not given here)
T1 peptide: YSPTSPSYSPTSPS

T2: pS2pS7 CTD diheptapeptide (also: pS2pS7: Ser2 and Ser7 phosphorylated, which heptad repeat(s) not given here)
T2 peptide: YSPTSPSYSPTSPS

T3: pS2pS5 CTD diheptapeptide (also: pS2pS5: Ser2 and Ser5 phosphorylated, which heptad repeat(s) not given here)
T3 peptide: YSPTSPSYSPTSPS


Legend:
pS2 CTD diheptapeptide [1] = assay: fluorescence correlation spectroscopy
[2] = biological target: pS2pS5 CTD diheptapeptide; assay: fluorescence correlation spectroscopy
pS2 CTD diheptapeptide [3] = biological target: T1, pS2 CTD diheptapeptide; assay: fluorescence polarisation
[4] = biological target: T2, pS2pS7 CTD diheptapeptide; assay: fluorescence polarisation
[5] = biological target: T3, pS2pS5 CTD diheptapeptide; assay: fluorescence polarisation

Molecule | stoichiometry N (pS2 CTD diheptapeptide [1]) | stoichiometry N [2] | fold reduction of binding against SPOC WT (pS2 CTD diheptapeptide [3]) | fold reduction of binding against SPOC WT [4] | fold reduction of binding against SPOC WT [5]
PHF3 SPOC domain (1199-1356aa), bacterially expressed (from UniProt Q92576 1199-1356) (domain or fragment) | 1 | 1 | – | – | –
PHF3 SPOC R1248A mutant, bacterially expressed (domain or fragment) STFLARLNFIWKGFINMPSVAKFVTKAYPVSGSPEYLTEDLPDSIQVGGAISPQTVWDYVEKIKASGTKEICVVRFTPVTEEDQISYTLLFAYFSSRKRYGVAANNMKQVKDMYLIPLGATDKIPHPLVPFDGPGLELHRPNLLLGLIIRQKLKRQHS | – | – | > 10 fold | > 10 fold | > 10 fold

From doi:10.1101/2020.02.11.943159 (bioRxiv, 2020)
